Measurements reported in patent publication US20130039917A1.

Target: PRELP expressed on the cell surface of human cancer cells (human), P51888
Assay: cell-based or functional assay

PRELP expressed on the cell surface of human cancer cells (human), P51888, sequence (P51888 21-382): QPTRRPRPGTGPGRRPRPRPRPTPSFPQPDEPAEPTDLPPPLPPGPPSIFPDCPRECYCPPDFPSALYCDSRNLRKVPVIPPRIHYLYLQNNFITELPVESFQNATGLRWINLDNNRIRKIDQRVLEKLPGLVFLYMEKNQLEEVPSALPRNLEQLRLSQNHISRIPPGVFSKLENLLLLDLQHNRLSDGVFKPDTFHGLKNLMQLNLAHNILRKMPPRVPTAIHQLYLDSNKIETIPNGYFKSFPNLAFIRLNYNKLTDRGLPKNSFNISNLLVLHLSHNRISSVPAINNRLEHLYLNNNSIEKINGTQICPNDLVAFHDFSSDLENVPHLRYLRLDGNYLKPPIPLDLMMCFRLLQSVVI

apoptosis (Annexin V-FITC and propidium iodide staining) of CLL cells, 18 hrs, 2.5 ug antibody: 16.9% | apoptosis (Annexin V-FITC and propidium iodide staining) of CLL cells, 18 hrs, 5 ug antibody: 32.2% | apoptosis (Annexin V-FITC and propidium iodide staining) of CLL cells, 18 hrs, 7.5 ug antibody: 39.2%
B1: anti-PRELP-SS clone 6G1-G11 (antibody, mouse IgM, V domains shown)
VH: EVKLQQSGAELVKPGASVKLSCTASGFNIKDTYMHWVKQRPEQGLEWIGRIDPANGNTKYDPKFQGKATITADTSSNTAYLQLSSLTSEDTAVYYCARSTTVVVDYWGQGTTLTVSS
VL: DILLTQTPAIKSASPGEKVTMTCSASSSISYMHWYQQKPGTSPKRWIYDTSKLASGVPARFSGSGSGTSYSLTISSMEAEDAATYYCHQRSSYPTFGAGTKLELK
